Assay results: paper PMC7788559

Molecular target: MRN (MRE11-RAD50-NBS1) wild type (Homo sapiens, UniProt P49959;Q92878;O60934 1-708;1-1312;1-754)
Experiment: pull-down, immunoblot

Chain of MRN (MRE11-RAD50-NBS1) wild type (P49959 whole entry, chain 1 of 3): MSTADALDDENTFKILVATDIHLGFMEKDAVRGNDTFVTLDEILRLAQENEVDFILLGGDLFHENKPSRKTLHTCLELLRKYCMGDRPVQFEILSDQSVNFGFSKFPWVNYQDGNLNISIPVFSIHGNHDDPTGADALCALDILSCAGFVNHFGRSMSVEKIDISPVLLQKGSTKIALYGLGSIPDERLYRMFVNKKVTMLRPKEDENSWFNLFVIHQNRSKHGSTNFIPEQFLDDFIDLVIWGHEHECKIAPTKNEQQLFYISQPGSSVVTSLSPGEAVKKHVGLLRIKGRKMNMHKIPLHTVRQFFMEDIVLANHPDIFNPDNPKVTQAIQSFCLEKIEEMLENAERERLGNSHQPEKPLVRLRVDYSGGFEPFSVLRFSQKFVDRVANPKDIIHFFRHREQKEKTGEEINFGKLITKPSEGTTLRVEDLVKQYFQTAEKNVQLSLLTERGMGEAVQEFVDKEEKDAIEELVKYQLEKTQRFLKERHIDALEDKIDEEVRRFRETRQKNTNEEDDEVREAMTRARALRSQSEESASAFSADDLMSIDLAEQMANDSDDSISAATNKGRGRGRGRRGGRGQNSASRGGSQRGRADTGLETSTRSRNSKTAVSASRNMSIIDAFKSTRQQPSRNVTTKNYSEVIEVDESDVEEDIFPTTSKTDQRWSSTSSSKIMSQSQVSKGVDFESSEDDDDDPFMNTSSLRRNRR
Chain of MRN (MRE11-RAD50-NBS1) wild type (Q92878 whole entry, chain 2 of 3): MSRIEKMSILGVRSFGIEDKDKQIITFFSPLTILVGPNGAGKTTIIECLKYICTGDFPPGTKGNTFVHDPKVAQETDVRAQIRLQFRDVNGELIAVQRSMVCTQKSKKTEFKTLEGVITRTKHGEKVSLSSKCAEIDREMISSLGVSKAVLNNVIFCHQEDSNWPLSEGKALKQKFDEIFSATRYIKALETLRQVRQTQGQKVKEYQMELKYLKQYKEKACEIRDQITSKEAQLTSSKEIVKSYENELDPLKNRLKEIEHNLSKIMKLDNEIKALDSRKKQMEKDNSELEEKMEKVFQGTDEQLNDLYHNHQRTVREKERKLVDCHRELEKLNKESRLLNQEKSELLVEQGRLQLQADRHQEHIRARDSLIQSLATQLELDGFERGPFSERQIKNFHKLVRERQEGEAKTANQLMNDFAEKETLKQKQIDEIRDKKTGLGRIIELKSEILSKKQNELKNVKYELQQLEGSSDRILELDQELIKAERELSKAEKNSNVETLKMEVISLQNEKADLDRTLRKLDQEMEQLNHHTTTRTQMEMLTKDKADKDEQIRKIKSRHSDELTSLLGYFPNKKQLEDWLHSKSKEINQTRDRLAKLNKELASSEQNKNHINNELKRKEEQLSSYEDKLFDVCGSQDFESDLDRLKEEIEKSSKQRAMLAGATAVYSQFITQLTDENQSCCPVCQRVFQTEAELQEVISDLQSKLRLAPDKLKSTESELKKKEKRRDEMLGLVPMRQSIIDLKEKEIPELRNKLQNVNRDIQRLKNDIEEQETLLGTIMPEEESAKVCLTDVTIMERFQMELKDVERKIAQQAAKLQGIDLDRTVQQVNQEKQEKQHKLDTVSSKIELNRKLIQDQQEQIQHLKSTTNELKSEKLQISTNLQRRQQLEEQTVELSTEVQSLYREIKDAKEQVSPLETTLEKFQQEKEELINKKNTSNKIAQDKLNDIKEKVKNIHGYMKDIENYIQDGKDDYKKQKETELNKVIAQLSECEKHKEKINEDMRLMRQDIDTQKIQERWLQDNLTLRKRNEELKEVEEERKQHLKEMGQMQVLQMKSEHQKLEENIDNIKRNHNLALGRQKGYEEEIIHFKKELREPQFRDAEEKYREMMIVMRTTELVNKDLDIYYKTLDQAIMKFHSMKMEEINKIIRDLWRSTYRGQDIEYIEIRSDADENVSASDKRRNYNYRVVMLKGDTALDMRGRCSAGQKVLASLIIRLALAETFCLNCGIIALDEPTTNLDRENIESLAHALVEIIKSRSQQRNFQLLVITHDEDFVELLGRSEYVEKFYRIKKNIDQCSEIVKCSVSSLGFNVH
Chain of MRN (MRE11-RAD50-NBS1) wild type (O60934 whole entry, chain 3 of 3): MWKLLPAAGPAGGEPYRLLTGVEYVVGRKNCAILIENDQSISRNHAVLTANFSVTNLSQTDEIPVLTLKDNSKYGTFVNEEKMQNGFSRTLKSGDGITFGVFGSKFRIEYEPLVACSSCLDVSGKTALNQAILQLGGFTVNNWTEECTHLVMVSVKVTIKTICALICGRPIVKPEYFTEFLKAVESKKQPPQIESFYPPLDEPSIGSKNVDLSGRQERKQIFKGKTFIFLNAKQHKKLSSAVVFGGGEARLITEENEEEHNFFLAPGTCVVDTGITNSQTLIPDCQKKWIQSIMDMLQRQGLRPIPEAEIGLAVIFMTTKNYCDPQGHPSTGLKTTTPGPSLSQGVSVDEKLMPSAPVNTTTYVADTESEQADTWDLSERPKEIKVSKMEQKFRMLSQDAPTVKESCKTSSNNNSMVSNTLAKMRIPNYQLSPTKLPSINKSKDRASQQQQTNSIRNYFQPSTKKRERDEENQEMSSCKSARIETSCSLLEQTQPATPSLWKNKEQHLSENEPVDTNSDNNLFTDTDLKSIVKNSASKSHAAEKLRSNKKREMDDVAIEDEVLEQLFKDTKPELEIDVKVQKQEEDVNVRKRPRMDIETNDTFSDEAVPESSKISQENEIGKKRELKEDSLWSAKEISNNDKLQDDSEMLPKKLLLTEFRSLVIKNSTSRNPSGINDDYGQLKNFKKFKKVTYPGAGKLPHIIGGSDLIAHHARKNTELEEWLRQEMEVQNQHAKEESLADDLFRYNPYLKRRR

B1: Sj60mer blunt dsDNA (dsDNA)
DNA 1: TTGTAAAACGACGGCCAGTGAATTCATCATCAATAATATACCTTATTTTGGGATCTATGC
DNA 2: GCATAGATCCCAAAATAAGGTATATTATTGATGATGAATTCACTGGCCGTCGTTTTACAA
  binding result: binds
